Measured values: patent US20040001830A1

Key:
Experiment in all cases: cell-based or functional assay
Lipidated TF (human) = Lipidated TF (human) (UniProt P13726)
[1] = target: Recombinant human soluble TF1-209 (human) (UniProt P13726)
[2] = target: Thromboplastin from human (TF source of the TF-dependent clotting assay) (human) (UniProt P13726)

FFR-rFVIIa: FVIIa blocked in the active site with D-Phe-L-Phe-L-Arg-chloromethyl ketone (from UniProt P08709 61-212) (enzyme)
IC50, inhibition of FXa generation (Assay 5; 10 pM lipidated TF, 100 pM FVIIa, 50 nM FX) (Lipidated TF (human)): 51 pM | IC50, inhibition of FVIIa/sTF amidolytic activity (Assay 4; 10 nM sTF, 10 nM FVIIa, substrate S2288) [1]: 7 nM | IC50, TF-dependent clotting assay (Assay 7) [2]: 0.0044 nM
